Measured values published in US20220218834A1, “APOHEMOGLOBIN-HAPTOGLOBIN COMPLEXES AND METHODS OF USING THEREOF” (OHIO STATE INNOVATION FOUNDATION, priority 2019, published 2022).
Values joined by “and” are separate entries in the source; they are usually repeats but may differ in a detail not shown here. Equal values may be shown once. Marks after values point to notes of the source that are not given here. Each block holds one molecule with its values, some of them ahead of it.

Assays:
[1] = O2 equilibrium binding curves of rHb and native Hb (Hemox analyzer); type: biochemical; conditions: 37° C.; for P50: O2 affinity; for N (cooperativity coefficient n): O2 equilibrium
Method: rHb Analysis. Various liganded forms of rHb were analyzed via UV-Vis spectroscopy and compared against native Hb. The oxy-rHb and oxyHb equilibrium binding curves were measured using a Hemox analyzer (TCS Scientific Corp., New Hope, Pa.) at 37° C. The spectra of rHb was measured after one day reaction with excess heme (stage 1), after reduction and diafiltration with the modified HEMOX buffer (stage 2), after placing the rHb mixture under a CO atmosphere (stage 3), after heating the CO-rHb mixture and removing precipitate (stage 4), and after re-oxygenating the rHb sample (stage 5). Spectral deconvolution software was developed in the Python programming language (Python Software Foundation Beaverton, Oreg.) using the non-linear least squares function curve_fit of the SciPy package to determine the fraction of various liganded forms of rHb that contribute to the final spectra of the rHb mixture (i.e. containing metHb, hemichrome, oxyHb, HbCO and heme).

[2] = Specificity of Al-PC binding to proteins (UV-visible absorbance at 680 nm); conditions: absorbance at 680 nm after Al-PC addition in PBS
Method: The stock Al-PC solution was diluted 100× into 100% EtOH.
The concentrations of Hp, HSA, Hb and rHb in solution were 1.0 mg/mL, 0.35 mg/ml (and 3.5 mg/ml), 0.35 mg/mL, and 0.33 mg/mL respectively.

[3] = target: T1, acellular human Hb (Homo sapiens, UniProt P68871+P69905); experiment: Vascular response to acellular Hb after pretreatment, hamster dorsal window chamber; type: in vivo, Golden Syrian Hamsters
T1 construct: Expired units of human red blood cells were generously donated; from tissue; host or cells: expired human red blood cell units; purified in house by tangential flow filtration
Method: Studies were performed in 55-65 g male Golden Syrian Hamsters (Charles River Laboratories, Boston, Mass.) fitted with a dorsal window chamber. The hamster window chamber model is widely used for microvascular studies without anesthesia. The complete surgical technique has been described previously. Two days after window implantation, arterial and venous catheters filled with heparinized saline solution (30 IU/mL) were implanted into the carotid and jugular vessels. Catheters were tunneled under the skin, exteriorized at the dorsal side of the neck, and securely attached to the window frame.
The unanesthetized animal was placed in a restraining tube with a longitudinal slit from which the window chamber protruded, then fixed to the microscopic stage for transillumination with the intravital microscope (BX51WI, Olympus, Japan). Animals were given 20 minutes to adjust to the tube environment and images were obtained using a CCD camera (4815, COHU, San Diego, Calif.). […]
The MAP and HR were monitored continuously (MP150, Biopac System Inc., Santa Barbara, Calif.). Hct was measured from centrifuged arterial blood samples taken in heparinized capillary tubes. Hb content was determined spectrophotometrically (B-Hemoglobin, Hemocue, Stockholm, Sweden). Arterial blood was collected in heparinized glass capillaries (50 μL) and immediately analyzed for pO2, pCO2, and pH (ABL90; Radiometer America, Brea, Calif.). Arterial Hb saturation was measured using an IL482 CO-Oximeter (Instrumentation Laboratory, Lexington, Mass.).
Arteriolar and venular blood flow velocities were measured using the photodiode cross-correlation method (Photo-Diode/Velocity, Vista Electronics, San Diego, Calif.). The measured centerline velocity (V) was corrected according to blood vessel size to obtain the mean RBC velocity. […] Blood flow (Q) was calculated from the measured values as Q=π/4D^2 V.
Functional capillaries, defined as capillary segments that have transit of at least one RBC in a 60 second period in 10 successive microscopic fields, were assessed in a region of 0.46 mm^2. […]

[4] = target: T2, PolyHb (Homo sapiens, UniProt P68871+P69905); experiment: 20% isovolemic exchange transfusion of PolyHb after pretreatment, hamster window chamber; type: in vivo, Golden Syrian Hamsters
T2 construct: from tissue; host or cells: human red blood cells; Hb purified and polymerised in house
Method: Additionally, animals with signs of low perfusion, inflammation, edema, or bleeding in their microvasculature were excluded from the study. Prior to treatment, baseline systemic parameters and microvascular hemodynamics were assessed. […] 20 minutes following the initial treatment, the systemic parameters and microvascular hemodynamics were assessed. Afterward, the animals underwent a 20 percent isovolemic exchange transfusion with a 10 g/dL PolyHb solution. After another 20 minutes, the systemic parameters and microvascular hemodynamics were measured. Mean arterial pressure (MAP) and heart rate (HR) were monitored continuously (MP150, Biopac System Inc., Santa Barbara, Calif.). The sample size of 5 animals per group was calculated based on an expected 10% difference in mean arterial pressure between groups, an α=0.05, and […], and equal enrollment for all groups. Additionally, microhemodynamic measurements contain data from multiple vessels within the field (5-7 arterioles and venules selected at baseline based on visual clarity), improving the power of these measurements. Each experiment is a repeated measures study, so all experimental timepoints are replicated between all animals and groups. Furthermore, each experimental group contains animals from different litters, improving the replication of these studies. Animals were randomly assigned to their respective group before baseline measurements were taken. Each group contains animals from multiple litters of hamsters to improve randomization. Investigators were not blinded to group allocation during data collection or analysis. Blinding is not possible with these solutions as they have distinct colors. Measurements taken are highly quantitative, so blinding should have little impact.
The unanesthetized animal was placed in a restraining tube with a longitudinal slit from which the window chamber protruded, then fixed to the microscopic stage for transillumination with the intravital microscope (BX51WI, Olympus, New Hyde Park, N.Y.). […] Measurements were carried out using a 40× (LUMPFL-WIR, numerical aperture 0.8, Olympus) water immersion objective.
Arteriolar and venular blood flow velocities were measured using the photodiode cross-correlation method (Photo-Diode/Velocity, Vista Electronics, San Diego, Calif.). The measured centerline velocity (V) was corrected according to blood vessel size to obtain the mean RBC velocity. A video image-shearing method was used to measure blood vessel diameter (D). Blood flow (Q) was calculated from the measured values as
Functional capillaries, defined as capillary segments that have RBC transit of at least one RBC in a 60 second period in 10 successive microscopic fields, were assessed in a region of 0.46 mm^2. FCD (mm^−1) is calculated as the total length of RBC perfused capillaries divided by the area (0.46 mm^2).

[5] = ApoHb stability during storage (DCNh activity assay, total protein, RP-HPLC); type: physicochemical; conditions: for effect of time on apoHb activity or total protein: stored at −80° C.
Method: The extinction coefficients of DCNh and rHbCN were 85 mM^−1 cm^−1 and 114 mM^−1 cm^−1, respectively.
Three TFF-apoHb batches were prepared. […] These groups consisted of unconcentrated, concentrated and lyophilized apoHb. […] The remainder of the batch was either sent to be lyophilized or to be concentrated to […]. […] The lyophilized powder was stored in a closed container at −80° C. […] These time intervals were chosen to capture relevant changes in activity at each storage condition. […] Thus, after initial measurements on a weekly basis, the insignificant changes lead to longer intervals between measurements. Statistical analysis was performed on JMP Pro v 12.2.2 (SAS Institute, Cary, N.C.) and measured concentrations were compared to the initial time point values of each batch. A linear fit with the logarithmic value of the concentration was used to examine the effect of time with the ANOVA test. For time point differences, time was considered as discrete and the TUKEY HSD test was performed.
Reverse Phase Chromatography. Reverse phase (RP) chromatography was performed with a BioBasic-18 column (Thermo Scientific, Waltham, Mass.) on a Thermo Scientific Dionex Ultimate UHPLC system. The flow rate of the mobile phase was set to 0.75 mL/min. The column was equilibrated with 35% acetonitrile and 65% TFA (0.5 wt %, pH 2.6) for 10 minutes. The gradient was then shifted to 43% acetonitrile over a 1 minute interval. The protein was eluted with an increasing linear gradient of 43 to 47% acetonitrile for 30 minutes. The column was then held at 47% acetonitrile for 20 minutes.

[6] = test system: β-thalassemic mice; conditions: cited from earlier work

T2 sequence (P69905 2-142 limits assumed): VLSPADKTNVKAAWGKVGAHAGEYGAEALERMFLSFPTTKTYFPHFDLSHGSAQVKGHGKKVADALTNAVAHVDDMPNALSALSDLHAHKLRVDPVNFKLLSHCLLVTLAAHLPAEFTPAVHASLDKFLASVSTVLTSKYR
T2 sequence (P68871 2-147 limits assumed): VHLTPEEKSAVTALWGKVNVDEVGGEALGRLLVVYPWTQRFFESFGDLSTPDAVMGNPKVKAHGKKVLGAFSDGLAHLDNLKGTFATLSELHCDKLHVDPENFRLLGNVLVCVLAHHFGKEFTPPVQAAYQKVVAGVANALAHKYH
T1 sequence (P69905 2-142 limits assumed): as the sequence (P69905 2-142 limits assumed) above
T1 sequence (P68871 2-147 limits assumed): as the sequence (P68871 2-147 limits assumed) above

P50 [1]: 11.36 ± 0.87 mm Hg
P50 ([1]; listed as concentrated rHb): 11.36±0.87 mm Hg
N (cooperativity coefficient n) [1]: 2.14 ± 0.17^a
N (cooperativity coefficient n) ([1]; listed as concentrated rHb): 2.14±0.17
Molecule: TFF rHb Concentrated: reconstituted Hb made from concentrated TFF-apoHb

Al-PC binding [2]: no appreciable binding of Al-PC
P50 [1]: 11.52±0.02 mm Hg and 11.20 ± 0.43 mm Hg
P50 ([1]; listed as unconcentrated rHb): 11.20±0.43 mm Hg
N (cooperativity coefficient n) ([1]; listed as unconcentrated rHb): 2.27±0.10
Molecule: TFF rHb: reconstituted Hb made from TFF-apoHb and heme

Molecule: apoHb: protein produced by removing heme from Hb; made via acidic ethanol tangential flow filtration
MAP ([3]; after acellular Hb 10% hypervolemic infusion): elevated MAP compared to baseline and pretreatment
FCD ([3]; after acellular Hb infusion): FCD decreased
HR ([3]; after acellular Hb infusion): statistically significant decrease in HR from baseline and pre-treatment
Al-PC binding [2]: Al-PC bound to apoHb and prevented Al-PC aggregation
MAP ([4]; after PolyHb exchange transfusion): significant increase in MAP
FCD ([4]; after PolyHb transfusion): FCD significantly decreased
arteriole and venule diameter ([4]; after PolyHb transfusion): significant decrease in relative arteriole and venule diameter compared to the baseline
arteriole and venule fluid velocities and volumetric flow rates ([4]; after PolyHb transfusion): the volumetric flow rate in the arterioles and venules decreased
MAP or HR ([4]; after administration, prior to transfusion of PolyHb): no significant effect on MAP or HR
FCD ([4]; after treatment, before PolyHb transfusion): significant increase in FCD
loss of apoHb activity during long term storage ([5]; 4° C., −80° C., and lyophilized form): Virtually no loss of apoHb activity
total protein and activity in solution during storage ([5]; 37° C., liquid): quickly lost total protein and activity in solution
P50 and cooperativity coefficient after reconstitution into rHb ([5]; apoHb stored at 4° C. for one month, vs reconstituted right after production): did not show any significant difference
effect of time on apoHb activity or total protein ([5]; lyophilized): did not show a significant effect of time on apoHb activity or total protein
retention of total protein ([5]; one-week storage at 22° C.): 80-90%
oxidative modifications (RP-HPLC) ([5]; stored at 4° C. or at 22° C.): show an additional β-chain peak (βox)
effect of time on activity ([5]; stored at 4° C., unconcentrated): no significant differences were seen after day 10
oxidative modifications (RP-HPLC) ([5]; stored at −80° C. or lyophilized for over a year): no oxidative modifications were observed
effect of time on apoHb activity or total protein ([5]; both concentrations): no statistically significant effect of time on apoHb activity or total protein

B1: Hpx: hemopexin, plasma heme scavenging protein (protein, UniProt P02790 24-462, looked up)
Hemopexin: TPLPPTSAHGNVAEGETKPDPDVTERCSDGWSFDATTLDDNGTMLFFKGEFVWKSHKWDRELISERWKNFPSPVDAAFRQGHNSVFLIKGDKVWVYPPEKKEKGYPKLLQDEFPGIPSPLDAAVECHRGECQAEGVLFFQGDREWFWDLATGTMKERSWPAVGNCSSALRWLGRYYCFQGNQFLRFDPVRGEVPPRYPRDVRDYFMPCPGRGHGHRNGTGHGNSTHHGPEYMRCSPHLVLSALTSDNHGATYAFSGTHYWRLDTSRDGWHSWPIAHQWPQGPSAVDAAFSWEEKLYLVQGTQVYVFLTKGGYTLVSGYPKRLEKEVGTPHGIILDSVDAAFICPGSSRLHIMAGRRLWWLDLKSGAQATWTELPWPHEKVDGALCMEKSLGPNSCSANGPGLYLIHGPNLYCYSDVEKLNAAKALPQPQNVTSLLGCTH
RBC levels ([6]; Hpx treatment alone): did not improve RBC levels
iron levels in the liver ([6]; one month of Hpx treatment alone): increased iron levels in the liver
